Measured values as given in article PMC7192608.

T1: Rap1-DBD (Saccharomyces cerevisiae, UniProt P11938 360-598)
T1 sequence: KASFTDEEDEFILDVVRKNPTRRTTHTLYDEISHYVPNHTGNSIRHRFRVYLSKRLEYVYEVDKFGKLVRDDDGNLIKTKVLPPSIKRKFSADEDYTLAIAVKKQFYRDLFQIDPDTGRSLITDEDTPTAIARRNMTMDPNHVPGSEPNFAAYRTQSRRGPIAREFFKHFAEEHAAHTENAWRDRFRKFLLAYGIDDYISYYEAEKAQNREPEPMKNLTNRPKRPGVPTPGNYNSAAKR

T2: Rap1 BRCT domain (Saccharomyces cerevisiae, UniProt P11938 1-358)
T2 sequence: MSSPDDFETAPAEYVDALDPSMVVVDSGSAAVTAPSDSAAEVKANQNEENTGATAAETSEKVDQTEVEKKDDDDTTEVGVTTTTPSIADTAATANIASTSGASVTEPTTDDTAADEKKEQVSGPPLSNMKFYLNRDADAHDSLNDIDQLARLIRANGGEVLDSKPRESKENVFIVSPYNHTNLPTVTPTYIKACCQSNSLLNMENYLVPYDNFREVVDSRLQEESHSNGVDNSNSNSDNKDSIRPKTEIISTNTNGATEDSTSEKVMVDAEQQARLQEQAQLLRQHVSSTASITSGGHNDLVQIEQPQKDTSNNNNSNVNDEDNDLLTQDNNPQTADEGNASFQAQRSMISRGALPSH

T3: Rap1 RCT (C-terminal domain) (Saccharomyces cerevisiae, UniProt P11938 600-827)
T3 sequence: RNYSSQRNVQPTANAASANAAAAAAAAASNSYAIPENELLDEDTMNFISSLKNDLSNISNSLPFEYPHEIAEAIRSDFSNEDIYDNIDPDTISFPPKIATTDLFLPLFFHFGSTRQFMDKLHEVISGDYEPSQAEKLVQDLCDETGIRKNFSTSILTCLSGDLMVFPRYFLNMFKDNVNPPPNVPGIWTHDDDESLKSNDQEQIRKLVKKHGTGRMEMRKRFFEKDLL


Assays:
Assay in all cases: EMSA
Rap1-DBD = molecular target: T1, Rap1-DBD
Rap1 BRCT domain = molecular target: T2, Rap1 BRCT domain
[1] = molecular target: T3, Rap1 RCT (C-terminal domain)

Binder	Kd (Rap1-DBD) [nM]	binding result (Rap1 BRCT domain)	binding result [1]
TGGGTGTGTGGGTGTGTGGGTGTGTGGG (structured_DNA) [4-G3 no tail]	22	–	–
TTGGGTGGGTGGGTGGGTT (structured_DNA) [T-loops]	45	–	–
AATTCTGGGTGTGTGGGTGTGTGGGTGTGTGGGTGTGG (structured_DNA) [4-G3]	28	no binding	no binding
